The target in series [1] is T1, RPA heterotrimer (UniProt P27694;P15927;P35244 1-616;1-270;1-121). Kind of series: EMSA. (In EMSA bound probe runs differently from free probe, usually more slowly.)
The target in series [2] is T1, RPA heterotrimer. Kind of series: EMSA. The source holds these as a separate data set.
Series [3] deals with T2, hUNG2 full-length (human, UniProt P13051 1-313). Kind of series: fluorescence anisotropy. For orientation: Polarisation of emitted light reports the rotation of a fluorescent probe.
For the next series, the target named is hUNG2 catalytic domain (human, UniProt P13051 92-313). Description: fluorescence anisotropy.
In series [4] the target is T2, hUNG2 full-length. Kind of series: fluorescence anisotropy. This is another data set of the same source.

This is an account of results in article PMC6101581.

Where two headings read alike, the source gives them in different places.

T1 sequence (P27694 whole entry, chain 1 of 3): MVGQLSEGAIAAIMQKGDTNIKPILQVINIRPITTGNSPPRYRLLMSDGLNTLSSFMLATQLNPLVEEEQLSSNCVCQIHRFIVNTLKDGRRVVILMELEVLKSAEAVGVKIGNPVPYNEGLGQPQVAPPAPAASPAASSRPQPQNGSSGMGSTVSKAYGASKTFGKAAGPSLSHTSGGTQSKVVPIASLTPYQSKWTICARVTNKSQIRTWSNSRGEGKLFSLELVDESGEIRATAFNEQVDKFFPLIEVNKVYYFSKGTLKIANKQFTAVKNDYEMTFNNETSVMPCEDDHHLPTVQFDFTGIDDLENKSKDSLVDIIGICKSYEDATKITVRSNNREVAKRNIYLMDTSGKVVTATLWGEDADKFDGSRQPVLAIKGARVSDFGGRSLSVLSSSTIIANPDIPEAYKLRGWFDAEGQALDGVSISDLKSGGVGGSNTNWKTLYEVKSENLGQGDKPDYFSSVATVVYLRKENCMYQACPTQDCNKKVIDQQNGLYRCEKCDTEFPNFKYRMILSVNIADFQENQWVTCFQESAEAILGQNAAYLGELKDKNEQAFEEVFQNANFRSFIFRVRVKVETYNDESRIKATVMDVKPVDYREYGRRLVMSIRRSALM
T1 sequence (P15927 whole entry, chain 2 of 3): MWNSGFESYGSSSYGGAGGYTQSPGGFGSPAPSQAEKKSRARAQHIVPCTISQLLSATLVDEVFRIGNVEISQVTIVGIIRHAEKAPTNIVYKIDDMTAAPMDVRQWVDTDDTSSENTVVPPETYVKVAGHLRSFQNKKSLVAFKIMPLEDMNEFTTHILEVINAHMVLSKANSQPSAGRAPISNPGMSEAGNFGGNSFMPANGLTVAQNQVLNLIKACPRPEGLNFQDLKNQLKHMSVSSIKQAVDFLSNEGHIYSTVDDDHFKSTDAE
T1 sequence (P35244 whole entry, chain 3 of 3): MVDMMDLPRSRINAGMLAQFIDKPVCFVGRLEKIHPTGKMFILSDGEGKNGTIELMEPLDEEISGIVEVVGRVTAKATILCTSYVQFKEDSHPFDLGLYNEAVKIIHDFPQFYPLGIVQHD
T2 sequence (P13051 whole entry, the tested form may be a part): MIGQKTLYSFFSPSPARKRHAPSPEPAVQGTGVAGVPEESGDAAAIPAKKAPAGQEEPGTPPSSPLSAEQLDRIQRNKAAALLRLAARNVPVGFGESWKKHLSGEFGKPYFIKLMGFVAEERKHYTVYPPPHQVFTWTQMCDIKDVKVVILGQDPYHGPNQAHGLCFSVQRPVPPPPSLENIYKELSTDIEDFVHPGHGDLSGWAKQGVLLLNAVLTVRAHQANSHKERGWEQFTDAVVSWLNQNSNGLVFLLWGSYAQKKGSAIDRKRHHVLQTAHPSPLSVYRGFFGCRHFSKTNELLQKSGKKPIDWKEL
hUNG2 catalytic domain, sequence (P13051 92-313): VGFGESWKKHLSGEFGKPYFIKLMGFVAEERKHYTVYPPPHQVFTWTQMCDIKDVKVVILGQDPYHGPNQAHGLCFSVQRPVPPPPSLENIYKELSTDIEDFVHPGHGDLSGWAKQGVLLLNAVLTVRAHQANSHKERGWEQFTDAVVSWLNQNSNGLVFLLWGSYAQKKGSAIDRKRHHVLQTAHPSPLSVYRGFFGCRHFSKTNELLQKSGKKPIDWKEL

B1: 55 bp duplex U9/U33 with 32 nt 3' overhang (oligos 18/19) (mixed)
DNA 1: ACTGATCAGAGTCCACTTAGCTATCGATTCTCGTACGCCCTTAGCTATCGATTCACTGGTTATACCTCACTACCACAGGTCGAGCTA
DNA 2: TGAATCGAUAGCTAAGGGCGTACGAGAATCGAUAGCTAAGTGGACTCTGATCAGT
modifications: two deoxyuridines in strand 2
Turning to B1, the binding result in the series with RPA heterotrimer [1] is “binds”.

B2: 55 bp duplex U21/U45 with 32 nt 5' overhang (oligos 4/5) (mixed)
DNA 1: ATCGAGCTGGACACCATCACTCCATATTGGTCACTGCATGCTCTTCTTAGCTATCGATTCACCTGAGACCTTAGCTATCGATTCTCA
DNA 2: TGAGAATCGAUAGCTAAGGTCTCAGGTGAATCGAUAGCTAAGAAGAGCATGCAGT
modifications: two deoxyuridines in strand 2
Take B2: the binding result in the series with RPA heterotrimer [2] is listed as “binds”.

B3: 29 bp duplex with 29 nt 5' ssDNA overhang (oligos 15/16) (mixed)
DNA 1: CACGCGTGGCCCGGCAGTTATCCAGCACCACTTAGCTATCGATTCCCGCATGCTCTGA
DNA 2: TCAGAGCATGCGGGAATCGATAGCTAAGT
Take B3: in the series with hUNG2 full-length [3], the binding result is “binds”.

B4: 29 bp duplex (oligos 13/14) (dsDNA)
DNA 1: GGTGCTGGATAACTGCCGGGCCACGCGTG
DNA 2: CACGCGTGGCCCGGCAGTTATCCAGCACC
Consider B4, for which the binding signal in the series with hUNG2 catalytic domain is 3 fold lower affinity than full-length hUNG2. As to CACGCGTGGCCCGGCAGTTATCCAGCACC (ssDNA) [29 nt ssDNA (oligo 14)], in the series with hUNG2 full-length [4], the binding signal was 3 fold higher affinity than N1 (29 bp dsDNA).

B5: 55 bp duplex U9/U33 with 32 nt 5' overhang (oligos 9/10) (mixed)
DNA 1: ATCGAGCTGGACACCATCACTCCATATTGGTCACTTAGCTATCGATTCCCGCATGCTCTTAGCTATCGATTCACCTGAGACTAGTCA
DNA 2: TGACTAGTCTCAGGTGAATCGAUAGCTAAGAGCATGCGGGAATCGAUAGCTAAGT
modifications: two deoxyuridines in strand 2
As for B5, the binding result with RPA heterotrimer [2] is given as “binds”.
